Measurements: PMC4491177, “Co-translational capturing of nascent ribosomal proteins by their dedicated chaperones” (Nature Communications, 2015)

B1: Sqt1 (53C construct): WD-repeat β-propeller domain of Sqt1; deletion of amino acids 1–52 (protein)
chain: MSNNSLTYFDKHTDSVFAIGHHPNLPLVCTGGGDNLAHLWTSHSQPPKFAGTLTGYGESVISCSFTSEGGFLVTADMSGKVLVHMGQKGGAQWKLASQMQEVEEIVWLKTHPTIARTFAFGATDGSVWCYQINEQDGSLEQLMSGFVHQQDCSMGEFINTDKGENTLELVTCSLDSTIVAWNCFTGQQLFKITQAEIKGLEAPWISLSLAPETLTKGNSGVVACGSNNGLLAVINCNNGGAILHLSTVIELKPEQDELDASIESISWSSKFSLMAIGLVCGEILLYDTSAWRVRHKFVLEDSVTKLMFDNDDLFASCINGKVYQFNARTGQEKFVCVGHNMGVLDFILLHPVANTGTEQKRKVITAGDEGVSLVFEVPN
B2: Sqt1 Glu315 to lysine: Sqt1 variant, Glu315 mutated to lysine (protein, UniProt P35184 1-431, looked up, variant E315K)
Ribosome assembly protein SQT1: MEPQEEFITTEEVEQEIVPTVEVEQDVPVDIEGENDDDDEMMNDDEEALEVDMSNNSLTYFDKHTDSVFAIGHHPNLPLVCTGGGDNLAHLWTSHSQPPKFAGTLTGYGESVISCSFTSEGGFLVTADMSGKVLVHMGQKGGAQWKLASQMQEVEEIVWLKTHPTIARTFAFGATDGSVWCYQINEQDGSLEQLMSGFVHQQDCSMGEFINTDKGENTLELVTCSLDSTIVAWNCFTGQQLFKITQAEIKGLEAPWISLSLAPETLTKGNSGVVACGSNNGLLAVINCNNGGAILHLSTVIELKPEQDELDASIKSISWSSKFSLMAIGLVCGEILLYDTSAWRVRHKFVLEDSVTKLMFDNDDLFASCINGKVYQFNARTGQEKFVCVGHNMGVLDFILLHPVANTGTEQKRKVITAGDEGVSLVFEVPN
B3: full-length Rpl10: full-length ribosomal protein Rpl10 (protein)
chain: MARRPARCYRYQKNKPYPKSRYNRAVPDSKIRIYDLGKKKATVDEFPLCVHLVSNELEQLSSEALEAARICANKYMTTVSGRDAFHLRVRVHPFHVLRINKMLSCAGADRLQQGMRGAWGKPHGLAARVDIGQIIFSVRTKDSNKDVVVEGLRRARYKFPGQQKIILSKKWGFTNLDRPEYLKKREAGEVKDDGAFVKFLSKKGSLENNIREFPEYFAAQA
modifications: left off: Gal4 DNA-binding domain or Gal4 activation domain (which of the two is not stated), end not stated, kept

Assays:
Rpl10 = experiment: Y2H interaction with Rpl10; format: binding, S. cerevisiae; settings: Sqt1 variants; PJ69-4A, HIS3 and ADE2 reporters, 3 days at 30 °C
Description: For Y2H interaction assays, plasmids expressing bait proteins, fused to the Gal4 DNA-binding domain (G4BD), and prey proteins, fused to the Gal4 activation domain (G4AD), were co-transformed into reporter strain PJ69-4A. Y2H interactions were documented by spotting representative transformants in 10-fold serial dilution steps onto SC-Trp-Leu, SC-Trp-Leu-His (HIS3 reporter) and SC-Trp-Leu-Ade (ADE2 reporter) plates, which were incubated for 3 days at 30 °C. Growth on SC-Trp-Leu-His plates is indicative of a weak/moderate interaction, whereas only relatively strong interactions permit growth on SC-Trp-Leu-Ade plates.

[1] = soluble expression in E. coli; format: physicochemical; settings: data not shown for Rpl10

| Molecule | Y2H interaction with Rpl10 (Rpl10) | soluble expression in E. coli [1] |
| --- | --- | --- |
| B1 | sufficient to mediate the interaction both with full-length or the N-terminal residues |  |
| B2 | abolished the interaction between Sqt1 and Rpl10 |  |
| B3 |  | expressed as an insoluble protein |
